Data reported in the supplement of paper PMC10567573.

B1: KIAA1161 (parent)
chain: FMPAMQFSIPPWRYDAEVVAIAQK

Variants of: B1
Experiment: protein stability index of a GFP-peptide fusion (GPS, HEK-293T) (PSI 1-6); higher = more stable
Conditions: c terminus: a fixed tail appended
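Further: lentivirally expressed fusions sorted by FACS into six bins by GFP to DsRed ratio, PSI derived from sequencing read proportions per bin multiplied by bin number.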

Variant	protein stability index
FMPAMQFSIPPWRYDAAVVAIAQK [E17A]	1.2
FMPAMQFSIPPWRYDAQVVAIAQK [E17Q]	3.67
FMPAMQFSIPPWRYDAKVVAIAQK [E17K]	2.66
FMPAMQFSIPPWRYDAVVVAIAQK [E17V]	1.24
FMPAMQFSIPPWRYDANVVAIAQK [E17N]	1.62
FMPAMQFSIPPWRYDASVVAIAQK [E17S]	1.62
FMPAMQFSIPPWRYDAHVVAIAQK [E17H]	1.92
FMPAMQFSIPPWRYDAYVVAIAQK [E17Y]	2.45
FMPAMQFSIPPWRYDAFVVAIAQK [E17F]	2.13
FMPAMQFSIPPWRYDADVVAIAQK [E17D]	1.54
FMPAMQFSIPPWRYDACVVAIAQK [E17C]	1.68
FMPAMQFSIPPWRYDAWVVAIAQK [E17W]	3.06
FMPAMQFSIPPWRYDAPVVAIAQK [E17P]	1.48
FMPAMQFSIPPWRYDAGVVAIAQK [E17G]	1.72
FMPAMQFSIPPWRYDAIVVAIAQK [E17I]	1.52
FMPAMQFSIPPWRYDARVVAIAQK [E17R]	1.38
FMPAMQFSIPPWRYDAEVVQIAQK [A20Q]	2.41
FMPAMQFSIPPWRYDAEVVNIAQK [A20N]	3.44
FMPAMQFSIPPWRYDAEVVKIAQK [A20K]	2.34
FMPAMQFSIPPWRYDAEVVEIAQK [A20E]	2.42
FMPAMQFSIPPWRYDAEVVCIAQK [A20C]	2.22
FMPAMQFSIPPWRYDAEVVFIAQK [A20F]	2.54
FMPAMQFSIPPWRYDAEVVTIAQK [A20T]	1.92
FMPAMQFSIPPWRYDAEVVSIAQK [A20S]	1.59

Variant	protein stability index
FMPAMQFSIPPWRYDAEVVGIAQK [A20G]	1.98
FMPAMQFSIPPWRYDAEVVDIAQK [A20D]	3.07
FMPAMQFSIPPWRYDAEVVVIAQK [A20V]	1.91
FMPAMQFSIPPWRYDAEVVPIAQK [A20P]	2.16
FMPAMQFSIPPWRYDAEVVHIAQK [A20H]	1.97
FMPAMQFSIPPWRYDAEVVMIAQK [A20M]	1.32
FMPAMQFSIPPWRYDAEVVRIAQK [A20R]	1.98
FMPAMQFSIPPWRYDAEVVWIAQK [A20W]	1.04
FMPAMQFSIPPWRYDAEIVAIAQK [V18I]	2.06
FMPAMQFSIPPWRYDAEWVAIAQK [V18W]	3.22
FMPAMQFSIPPWRYDAETVAIAQK [V18T]	1.88
FMPAMQFSIPPWRYDAEQVAIAQK [V18Q]	2.81
FMPAMQFSIPPWRYDAEMVAIAQK [V18M]	1.88
FMPAMQFSIPPWRYDAEEVAIAQK [V18E]	2.63
FMPAMQFSIPPWRYDAEHVAIAQK [V18H]	2.93
FMPAMQFSIPPWRYDAEKVAIAQK [V18K]	2.33
FMPAMQFSIPPWRYDAERVAIAQK [V18R]	3.34
FMPAMQFSIPPWRYDAEYVAIAQK [V18Y]	2.03
FMPAMQFSIPPWRYDAEDVAIAQK [V18D]	2.36
FMPAMQFSIPPWRYDAECVAIAQK [V18C]	1.86
FMPAMQFSIPPWRYDAEGVAIAQK [V18G]	2.6
FMPAMQFSIPPWRYDAEPVAIAQK [V18P]	2.96
FMPAMQFSIPPWRYDAELVAIAQK [V18L]	2.23
FMPAMQFSIPPWRYDAEAVAIAQK [V18A]	2.17

Variant	protein stability index
FMPAMQFSIPPWRYDAENVAIAQK [V18N]	2.23
FMPAMQFSIPPWRYDAESVAIAQK [V18S]	2.05
FMPAMQFSIPPWRYDAEFVAIAQK [V18F]	1.62
FMPAMQFSIPPWRYDAEVMAIAQK [V19M]	1.81
FMPAMQFSIPPWRYDAEVSAIAQK [V19S]	1.48
FMPAMQFSIPPWRYDAEVLAIAQK [V19L]	1.47
FMPAMQFSIPPWRYDAEVPAIAQK [V19P]	4.1
FMPAMQFSIPPWRYDAEVKAIAQK [V19K]	1.99
FMPAMQFSIPPWRYDAEVGAIAQK [V19G]	2.2
FMPAMQFSIPPWRYDAEVEAIAQK [V19E]	2.42
FMPAMQFSIPPWRYDAEVNAIAQK [V19N]	3.31
FMPAMQFSIPPWRYDAEVIAIAQK [V19I]	1.46
FMPAMQFSIPPWRYDAEVAAIAQK [V19A]	2.18
FMPAMQFSIPPWRYDAEVFAIAQK [V19F]	2.48
FMPAMQFSIPPWRYDAEVCAIAQK [V19C]	2.39
FMPAMQFSIPPWRYDAEVTAIAQK [V19T]	2.21
FMPAMQFSIPPWRYDAEVRAIAQK [V19R]	2.83
FMPAMQFSIPPWRYDAEVQAIAQK [V19Q]	2.5
FMPAMQFSIPPWRYDAEVDAIAQK [V19D]	2.82
FMPAMQFSIPPWRYDAEVHAIAQK [V19H]	1.56
FMPAMQFSIPPWRYDAEVYAIAQK [V19Y]	3.33
FMPAMQFSIPPWRYDAEVVALAQK [I21L]	1.93
FMPAMQFSIPPWRYDAEVVAHAQK [I21H]	2.32
FMPAMQFSIPPWRYDAEVVAKAQK [I21K]	2.07

Variant	protein stability index
FMPAMQFSIPPWRYDAEVVAVAQK [I21V]	1.68
FMPAMQFSIPPWRYDAEVVARAQK [I21R]	2.31
FMPAMQFSIPPWRYDAEVVAPAQK [I21P]	2.16
FMPAMQFSIPPWRYDAEVVAEAQK [I21E]	2.6
FMPAMQFSIPPWRYDAEVVAFAQK [I21F]	2.52
FMPAMQFSIPPWRYDAEVVASAQK [I21S]	2.38
FMPAMQFSIPPWRYDAEVVAQAQK [I21Q]	2.81
FMPAMQFSIPPWRYDAEVVADAQK [I21D]	2.59
FMPAMQFSIPPWRYDAEVVAYAQK [I21Y]	1.64
FMPAMQFSIPPWRYDAEVVATAQK [I21T]	2.17
FMPAMQFSIPPWRYDAEVVANAQK [I21N]	2.11
FMPAMQFSIPPWRYDAEVVAGAQK [I21G]	2.66
FMPAMQFSIPPWRYDAEVVAITQK [A22T]	2.51
FMPAMQFSIPPWRYDAEVVAINQK [A22N]	1.6
FMPAMQFSIPPWRYDAEVVAIPQK [A22P]	2.58
FMPAMQFSIPPWRYDAEVVAISQK [A22S]	1.94
FMPAMQFSIPPWRYDAEVVAIFQK [A22F]	2.18
FMPAMQFSIPPWRYDAEVVAILQK [A22L]	2.45
FMPAMQFSIPPWRYDAEVVAIHQK [A22H]	1.9
FMPAMQFSIPPWRYDAEVVAIKQK [A22K]	1.88
FMPAMQFSIPPWRYDAEVVAIQQK [A22Q]	2.56
FMPAMQFSIPPWRYDAEVVAIDQK [A22D]	1.96
